Source: PMC8996148, “Crystal structure of the ternary complex of Leishmania major pteridine reductase 1 with the cofactor NADP^+/NADPH and the substrate folic acid” (Acta Crystallographica. Section F, Structural Biology …, 2022)

Biological target: the molecule itself
Test: crystal structure; pre-formed crystals of the native enzyme (sitting drop, 293 K, 12% PEG 4600, 100 mM sodium acetate pH 5.5, 120-160 mM calcium acetate) soaked with 2 mM folate for 15 min; space group P212121, four copies per asymmetric unit; 1.81 Å

B1: Leishmania major pteridine reductase 1 (enzyme)
chain: MTAPTVPVALVTGAAKRLGRSIAEGLHAEGYAVCLHYHRSAAEANALSATLNARRPNSAITVQADLSNVATAPVSGADGSAPVTLFTRCAELVAACYTHWGRCDVLVNNASSFYPTPLLRNDEDGHEPCVGDREAMETATADLFGSNAIAPYFLIKAFAHRVAGTPAKHRGTNYSIINMVDAMTNQPLLGYTIYTMAKGALEGLTRSAALELAPLQIRVNGVGPGLSVLVDDMPPAVWEGHRSKVPLYQRDSSAAEVSDVVIFLCSSKAKYITGTCVKVDGGYSLTRA
notes: Pteridine reductase 1, Leishmania major, UniProtKB Q01782; codon-optimized synthetic DNA in pET-15b; also called LmPTR1; PTR1
**Q.** B1 was tested. Which “stoichiometry N” value did it give?
**A.** 4
